Source: publication PMC5527686 (Journal of molecular biology, 2017)
Numbering of substitutions follows the chain as printed. Numbers in names are those of the source.

Experiments:
SEC = target: the molecule itself; test: SEC
AUC = target: the molecule itself; test: AUC

B1: IreB Y79E (purified recombinant) (natural protein, Enterococcus faecalis)
chain: MGFTDETVRFDFDDNRKKAISETLETVYRALEEKGYNPINQIVGYLLSGDPAYIPRYQDARNLIRRHERDEIMEELTKEYLANHGIDIK
SEC
  stoichiometry N: 2

B2: IreB (purified recombinant wild-type) (natural protein)
chain: B1 chain with E79Y
AUC
  stoichiometry N: 2.05
SEC
  stoichiometry N: 2

B3: IreB L81W (purified recombinant) (natural protein, Enterococcus faecalis)
chain: B1 chain with E79Y, L81W
SEC
  stoichiometry N: 2
